Tests used:
Test in all cases: immunofluorescence on infected Vero E6 cells
[1] = molecular target: T1, spike protein of SARS-CoV-2 B.1.1.7 (Alpha) clinical isolate (19/Italy/LOM-UniSR7/2021); GISAID … (SARS-CoV-2, UniProt P0DTC2 14-1273)
T1 construct: whole, on cells

[2] = molecular target: T2, spike protein of SARS-CoV-2 P.1 (Gamma) clinical isolate (hCoV-19/Italy/LOM-UniSR8/2021); GISAID … (SARS-CoV-2, UniProt P0DTC2 14-1273)
T2 construct: whole, on cells

[3] = molecular target: T3, spike protein of SARS-CoV-2 Delta clinical isolate (hCoV-19/Italy/LOM-UniSR12/2021; GISAID EPI_ISL_4198505) (SARS-CoV-2, UniProt P0DTC2 14-1273)
T3 construct: whole, on cells

Measured: binding result

B1: Fab BS.70 (Fab, V domains shown)
VH: LESGGGVVQPGTSLRLSCAASGFTFNNFGMHWVRQAPGKGLEWVAMISYEGSKDFYADSVKGRFTISKDHARNTVYLQMNSLRAEDTAEYYCAKDKAIFMISAGRTLDFWGQGTLVTVSS
VL: ELVMTQSPSSLSASVGDRVTITCRASQNIGIYLNWYQQKPGKAPKLLIYAASSLQNGVPSRFSGSGSGTDFTLTISTLQPEDFATYWCQQGYSTPLTFGGGTKVEIR
binds: all assays above
